Reference: the supplement of paper PMC10065799, “High-throughput profiling of sequence recognition by tyrosine kinases and SH2 domains using bacterial peptide display” (eLife, 2023)

Assays:
c-Src SH2 = test: SH2 binding enrichment of the phosphorylated peptide, bacterial display (enrichment ratio); higher = better substrate or ligand; peptides without Tyr show the background
Grb2 SH2 = Grb2 SH2 (UniProt P62993); test: as above
SHP2-C SH2 = test: as above
FGFR1 = FGFR1 (UniProt P11362); test: phosphorylation enrichment, bacterial display (enrichment ratio); higher = better substrate or ligand; peptides without Tyr show the background
Fyn = Fyn (UniProt P06241); test: as above
c-Abl (mouse) = test: as above
Fer (mouse) = test: as above
Hck = Hck (UniProt P08631); test: as above
EPHB1 = EPHB1 (UniProt P54762); test: as above
Fes = Fes (UniProt P07332); test: as above
EPHB2 = EPHB2 (UniProt P29323); test: as above
MERTK = MERTK (UniProt Q12866); test: as above
AncSZ = test: as above
Jak2 = Jak2 (UniProt O60674); test: as above
c-Src = test: as above
FGFR3 = FGFR3 (UniProt P22607); test: as above
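Wherever SH2 binding enrichment of the phosphorylated peptide, bacterial display is given: peptide library displayed on the E. coli surface as eCPX fusions, selected cells deep-sequenced, score is each peptide's frequency after selection divided by its frequency in the input.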
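Wherever phosphorylation enrichment, bacterial display is given: 11-residue human phosphosite peptides and single-mutation variants displayed on the E. coli surface, counted by deep sequencing, each peptide's frequency after selection divided by its frequency in the unselected input library; frequency after pTyr selection over input frequency; kinase dosed for 20-30% of maximal phosphorylation in three min.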

EPHB2, sequence (P29323 whole entry, looked up): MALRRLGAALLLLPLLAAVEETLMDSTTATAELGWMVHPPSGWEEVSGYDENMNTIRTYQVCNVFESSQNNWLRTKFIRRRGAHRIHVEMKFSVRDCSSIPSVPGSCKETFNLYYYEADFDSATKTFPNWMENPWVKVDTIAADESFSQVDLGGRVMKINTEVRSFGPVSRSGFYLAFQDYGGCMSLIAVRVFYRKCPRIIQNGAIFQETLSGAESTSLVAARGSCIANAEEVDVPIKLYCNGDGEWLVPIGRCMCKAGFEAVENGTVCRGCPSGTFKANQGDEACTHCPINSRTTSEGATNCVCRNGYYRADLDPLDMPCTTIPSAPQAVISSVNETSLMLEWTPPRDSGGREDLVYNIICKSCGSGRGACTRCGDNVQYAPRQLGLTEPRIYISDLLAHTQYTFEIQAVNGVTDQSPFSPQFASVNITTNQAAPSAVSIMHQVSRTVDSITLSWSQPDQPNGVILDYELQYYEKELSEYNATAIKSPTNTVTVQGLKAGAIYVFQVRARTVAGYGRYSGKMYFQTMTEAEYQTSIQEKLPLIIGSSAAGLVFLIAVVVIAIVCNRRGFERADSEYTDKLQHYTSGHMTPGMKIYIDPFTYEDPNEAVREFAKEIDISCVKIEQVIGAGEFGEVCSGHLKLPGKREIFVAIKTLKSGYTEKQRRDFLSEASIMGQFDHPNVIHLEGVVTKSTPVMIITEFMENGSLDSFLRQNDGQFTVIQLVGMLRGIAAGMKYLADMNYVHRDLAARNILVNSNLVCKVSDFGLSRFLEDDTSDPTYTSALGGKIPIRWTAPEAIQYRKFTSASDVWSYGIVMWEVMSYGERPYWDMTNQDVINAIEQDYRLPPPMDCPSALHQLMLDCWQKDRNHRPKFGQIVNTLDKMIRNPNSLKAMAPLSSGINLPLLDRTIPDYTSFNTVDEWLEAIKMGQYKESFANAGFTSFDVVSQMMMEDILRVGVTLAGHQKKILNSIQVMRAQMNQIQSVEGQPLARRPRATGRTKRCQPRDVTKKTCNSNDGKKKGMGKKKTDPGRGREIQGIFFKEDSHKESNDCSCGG
Fyn, sequence (P06241 whole entry, looked up): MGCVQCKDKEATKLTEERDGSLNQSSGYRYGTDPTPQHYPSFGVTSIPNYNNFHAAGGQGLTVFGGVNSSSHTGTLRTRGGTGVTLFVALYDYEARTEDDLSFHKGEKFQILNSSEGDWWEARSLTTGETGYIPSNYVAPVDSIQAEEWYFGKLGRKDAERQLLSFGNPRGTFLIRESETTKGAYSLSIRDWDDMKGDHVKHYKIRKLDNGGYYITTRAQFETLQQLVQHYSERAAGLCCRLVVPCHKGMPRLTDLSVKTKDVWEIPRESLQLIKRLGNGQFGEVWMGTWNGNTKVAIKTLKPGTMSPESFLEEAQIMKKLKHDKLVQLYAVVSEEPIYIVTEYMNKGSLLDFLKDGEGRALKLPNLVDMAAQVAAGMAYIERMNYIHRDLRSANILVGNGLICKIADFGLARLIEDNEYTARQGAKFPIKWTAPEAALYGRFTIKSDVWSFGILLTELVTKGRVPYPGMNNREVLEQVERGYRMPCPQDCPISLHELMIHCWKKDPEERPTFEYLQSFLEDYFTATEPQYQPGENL
EPHB1, sequence (P54762 whole entry, looked up): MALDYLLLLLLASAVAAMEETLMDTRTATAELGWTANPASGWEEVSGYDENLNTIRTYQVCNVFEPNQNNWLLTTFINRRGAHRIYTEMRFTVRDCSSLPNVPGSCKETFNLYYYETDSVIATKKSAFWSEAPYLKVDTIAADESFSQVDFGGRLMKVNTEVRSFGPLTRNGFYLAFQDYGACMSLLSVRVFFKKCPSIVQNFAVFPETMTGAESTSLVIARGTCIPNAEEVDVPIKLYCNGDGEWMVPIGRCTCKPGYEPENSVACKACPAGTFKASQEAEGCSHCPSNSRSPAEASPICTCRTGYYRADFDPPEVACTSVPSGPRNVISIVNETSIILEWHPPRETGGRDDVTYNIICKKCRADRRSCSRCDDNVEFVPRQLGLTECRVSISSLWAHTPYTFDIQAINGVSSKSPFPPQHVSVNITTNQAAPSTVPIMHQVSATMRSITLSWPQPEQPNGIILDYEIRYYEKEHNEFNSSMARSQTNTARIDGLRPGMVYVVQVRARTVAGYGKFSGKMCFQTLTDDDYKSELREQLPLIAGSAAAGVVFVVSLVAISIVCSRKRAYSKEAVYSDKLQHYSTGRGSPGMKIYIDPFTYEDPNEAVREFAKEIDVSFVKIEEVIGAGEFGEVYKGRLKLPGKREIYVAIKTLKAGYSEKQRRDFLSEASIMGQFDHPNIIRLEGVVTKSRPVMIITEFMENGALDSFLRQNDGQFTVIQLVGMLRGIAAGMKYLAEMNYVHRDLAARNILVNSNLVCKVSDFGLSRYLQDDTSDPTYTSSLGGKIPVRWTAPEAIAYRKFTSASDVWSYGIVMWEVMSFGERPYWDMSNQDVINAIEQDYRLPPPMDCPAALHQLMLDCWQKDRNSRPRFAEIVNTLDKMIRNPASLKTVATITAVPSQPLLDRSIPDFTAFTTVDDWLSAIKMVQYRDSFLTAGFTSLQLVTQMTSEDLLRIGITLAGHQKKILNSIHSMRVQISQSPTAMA
MERTK, sequence (Q12866 whole entry, looked up): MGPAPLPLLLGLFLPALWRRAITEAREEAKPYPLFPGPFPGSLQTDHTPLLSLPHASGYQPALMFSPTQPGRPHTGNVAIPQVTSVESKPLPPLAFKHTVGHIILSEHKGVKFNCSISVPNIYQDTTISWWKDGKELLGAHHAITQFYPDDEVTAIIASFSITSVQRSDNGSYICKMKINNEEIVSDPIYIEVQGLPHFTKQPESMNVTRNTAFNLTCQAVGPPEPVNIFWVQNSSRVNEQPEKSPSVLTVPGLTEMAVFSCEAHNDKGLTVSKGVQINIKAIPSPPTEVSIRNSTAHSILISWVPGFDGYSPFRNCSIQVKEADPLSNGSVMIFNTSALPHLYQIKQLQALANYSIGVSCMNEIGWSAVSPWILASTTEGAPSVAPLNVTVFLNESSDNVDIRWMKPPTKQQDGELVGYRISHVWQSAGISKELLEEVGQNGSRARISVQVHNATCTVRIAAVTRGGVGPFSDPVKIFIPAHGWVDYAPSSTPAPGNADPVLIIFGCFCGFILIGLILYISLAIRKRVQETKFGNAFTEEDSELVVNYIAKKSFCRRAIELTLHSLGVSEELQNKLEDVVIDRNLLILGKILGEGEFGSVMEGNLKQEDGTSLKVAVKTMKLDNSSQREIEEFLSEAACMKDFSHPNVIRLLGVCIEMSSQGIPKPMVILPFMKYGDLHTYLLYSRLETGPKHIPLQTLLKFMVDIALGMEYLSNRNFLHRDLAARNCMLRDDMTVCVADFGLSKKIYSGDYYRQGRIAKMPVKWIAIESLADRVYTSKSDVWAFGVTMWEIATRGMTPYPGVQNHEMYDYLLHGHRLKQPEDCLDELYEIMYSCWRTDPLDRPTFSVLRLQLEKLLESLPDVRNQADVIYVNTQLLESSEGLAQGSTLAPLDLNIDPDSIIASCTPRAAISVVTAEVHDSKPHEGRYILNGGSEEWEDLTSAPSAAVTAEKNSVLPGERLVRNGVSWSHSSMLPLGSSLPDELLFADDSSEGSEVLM
FGFR3, sequence (P22607 whole entry, looked up, the tested form may be a part): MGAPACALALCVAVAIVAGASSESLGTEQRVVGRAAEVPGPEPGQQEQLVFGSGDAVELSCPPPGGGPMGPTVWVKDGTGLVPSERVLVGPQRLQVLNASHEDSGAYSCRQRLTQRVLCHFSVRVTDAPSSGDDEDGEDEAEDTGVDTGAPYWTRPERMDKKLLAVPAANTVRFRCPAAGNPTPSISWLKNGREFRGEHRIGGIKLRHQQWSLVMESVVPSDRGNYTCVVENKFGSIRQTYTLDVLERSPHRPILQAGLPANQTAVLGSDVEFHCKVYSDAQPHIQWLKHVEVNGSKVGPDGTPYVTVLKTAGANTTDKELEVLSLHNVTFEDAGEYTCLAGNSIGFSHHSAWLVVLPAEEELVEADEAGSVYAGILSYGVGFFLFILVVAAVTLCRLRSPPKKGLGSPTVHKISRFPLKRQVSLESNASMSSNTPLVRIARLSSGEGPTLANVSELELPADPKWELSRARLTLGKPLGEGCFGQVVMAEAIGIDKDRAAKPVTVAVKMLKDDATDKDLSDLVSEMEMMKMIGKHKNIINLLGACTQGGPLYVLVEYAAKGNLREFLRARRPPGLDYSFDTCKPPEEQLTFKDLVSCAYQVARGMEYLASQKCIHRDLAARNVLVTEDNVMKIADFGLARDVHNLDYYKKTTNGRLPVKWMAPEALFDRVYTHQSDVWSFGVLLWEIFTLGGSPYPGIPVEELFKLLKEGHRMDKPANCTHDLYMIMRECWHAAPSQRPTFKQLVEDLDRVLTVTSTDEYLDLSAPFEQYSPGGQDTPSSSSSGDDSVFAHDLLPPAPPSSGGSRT
Hck, sequence (P08631 whole entry, looked up): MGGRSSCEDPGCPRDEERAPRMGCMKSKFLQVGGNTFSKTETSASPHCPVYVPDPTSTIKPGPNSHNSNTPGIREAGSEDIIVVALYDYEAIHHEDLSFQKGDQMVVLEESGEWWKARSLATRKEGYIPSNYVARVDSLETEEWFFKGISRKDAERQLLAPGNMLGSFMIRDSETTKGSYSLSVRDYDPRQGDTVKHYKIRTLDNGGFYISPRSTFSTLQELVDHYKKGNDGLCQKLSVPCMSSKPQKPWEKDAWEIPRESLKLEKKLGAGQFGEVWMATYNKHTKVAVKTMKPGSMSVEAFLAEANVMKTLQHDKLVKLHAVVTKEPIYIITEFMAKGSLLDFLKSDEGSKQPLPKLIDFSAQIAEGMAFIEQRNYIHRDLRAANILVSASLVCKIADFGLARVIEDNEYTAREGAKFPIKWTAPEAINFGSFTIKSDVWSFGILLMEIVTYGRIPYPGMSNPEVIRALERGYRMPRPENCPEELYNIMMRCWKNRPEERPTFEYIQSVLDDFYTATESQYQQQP

Sequence | SH2 binding enrichment (c-Src SH2) | SH2 binding enrichment (Grb2 SH2) | SH2 binding enrichment (SHP2-C SH2) | phosphorylation enrichment (FGFR1) | phosphorylation enrichment (Fyn) | phosphorylation enrichment (c-Abl (mouse)) | phosphorylation enrichment (Fer (mouse)) | phosphorylation enrichment (Hck) | phosphorylation enrichment (EPHB1) | phosphorylation enrichment (Fes) | phosphorylation enrichment (EPHB2) | phosphorylation enrichment (MERTK) | phosphorylation enrichment (AncSZ) | phosphorylation enrichment (Jak2) | phosphorylation enrichment (c-Src) | phosphorylation enrichment (FGFR3)
EAIMTYVSSFY [ACTN4_Y260_K255E] | 0.477 | 0.712 | 0.672 | 0.459 | 0.503 | 0.708 | 0.445 | 0.631 | 0.617 | 1.12 | 0.631 | 0.457 | 1.14 | 1.06 | 0.855 | 0.693
EALDFYGEVRI [PTEN_Y155_T160I] | 0.499 | 1.09 | 0.567 | 0.538 | 1.64 | 1.11 | 1.55 | 1.13 | 0.871 | 1.73 | 0.614 | 0.494 | 1.49 | 2.03 | 1.44 | 1.1
EEGNPSYSSAR [MCCC2_Y520_Y520S] | 0.517 | 0.825 | 0.647 | 0.529 | 0.497 | 1.25 | 0.513 | 0.585 | 0.514 | 1 | 0.539 | 0.501 | 0.962 | 0.776 | 0.542 | 0.554
EFITRYIDSLK [PSMA7_Y110_A112D_YF] | 0.552 | 0.818 | 0.713 | 0.558 | 0.526 | 0.483 | 0.426 | 0.501 | 0.425 | 0.878 | 0.493 | 0.479 | 0.785 | 0.733 | 0.456 | 0.639
EFKKKYSDADI [CKAP5_Y1860_YF] | 0.487 | 0.883 | 0.616 | 0.413 | 0.459 | 0.464 | 0.331 | 0.408 | 0.303 | 0.683 | 0.565 | 0.472 | 0.576 | 0.606 | 0.334 | 0.476
EGDGVYTLNNK [HP_Y125_E130K] | 0.377 | 1.08 | 0.426 | 0.48 | 7.02 | 0.62 | 0.455 | 3.23 | 0.601 | 0.857 | 0.378 | 0.354 | 0.86 | 0.749 | 4.5 | 0.586

More lines, main results first:

SH2 binding enrichment (c-Src SH2) | SH2 binding enrichment (Grb2 SH2) | SH2 binding enrichment (SHP2-C SH2) | Sequence | phosphorylation enrichment (FGFR1) | phosphorylation enrichment (Fyn) | phosphorylation enrichment (c-Abl (mouse)) | phosphorylation enrichment (Fer (mouse)) | phosphorylation enrichment (Hck) | phosphorylation enrichment (EPHB1) | phosphorylation enrichment (Fes) | phosphorylation enrichment (EPHB2) | phosphorylation enrichment (MERTK) | phosphorylation enrichment (AncSZ) | phosphorylation enrichment (Jak2) | phosphorylation enrichment (c-Src) | phosphorylation enrichment (FGFR3)
0.421 | 0.901 | 0.847 | EEQKKYFNAMK [SCN5A_Y1494_YF] | 0.421 | 0.489 | 0.616 | 0.341 | 0.459 | 0.459 | 0.866 | 0.474 | 0.428 | 0.882 | 0.672 | 0.479 | 0.656
0.607 | 1.51 | 0.789 | EFEGLYQEGGG [TMEM159_Y159] | 0.5 | 0.675 | 0.551 | 0.585 | 0.842 | 0.576 | 0.939 | 0.579 | 0.456 | 0.974 | 0.781 | 0.658 | 0.612
0.462 | 0.9 | 0.652 | EHLNRYISDTF [TTLL10_Y446] | 0.428 | 0.434 | 0.655 | 0.434 | 0.51 | 0.44 | 0.641 | 0.473 | 0.393 | 0.737 | 0.535 | 0.42 | 0.567
